# Article PMC4835091
# B1: FtsZ (purified, WT) [E. coli] / ZapD (purified) [E. coli] (parent)
# chain 1: MQTQVLFEHPLNEKMRTWLRIEFLIQQLTVNLPIVDHAGALHFFRNVSELLDVFERGEVRTELLKELDRQQRKLQTWIGVPGVDQSRIEALIQQLKAAGSVLISAPRIGQFLREDRLIALVRQRLSIPGGCCSFDLPTLHIWLHLPQAQRDSQVETWIASLNPLTQALTMVLDLIRQSAPFRKQTSLNGFYQDNGGDADLLRLNLSLDSQLYPQISGHKSRFAIRFMPLDTENGQVPERLDFELACC
# chain 2: MFEPMELTNDAVIKVIGVGGGGGNAVEHMVRERIEGVEFFAVNTDAQALRKTAVGQTIQIGSGITKGLGAGANPEVGRNAADEDRDALRAALEGADMVFIAAGMGGGTGTGAAPVVAEVAKDLGILTVAVVTKPFNFEGKKRMAFAEQGITELSKHVDSLITIPNDKLLKVLGRGISLLDAFGAANDVLKGAVQGIAELITRPGLMNVDFADVRTVMSEMGYAMMGSGVASGEDRAEEAAEMAISSPLLEDIDLSGARGVLVNITAGFDLRLDEFETVGNTIRAFASDNATVVIGTSLDPDMNDELRVTVVATGIGMDKRPEITLVTNKQVQQPVMDRYQQHGMAPLTQEQKPVAKVVNDNAPQTAKEPDYLDIPAFLRKQAD
# B2: FtsZ (purified, WT) [E. coli] / itself (parent)
# chain: B1 chain 2
# What was measured:
# [1] = variants of: B1; experiment: co-sedimentation assay, SDS-PAGE quantification; details: with ZapD (purified) [E. coli], 50 mM K-MOPS pH 6.5, 50 mM KCl, 2.5 mM MgCl2, 1 mM GTP, 3 µM BSA, read off a plot
# [2] = variants of: B2; experiment: sedimentation (co-pelleting) assay, SDS-PAGE quantification; details: with itself, 50 mM K-MOPS pH 6.5, 50 mM KCl, 2.5 mM MgCl2, 1 mM GTP, 3 µM BSA, read off a plot
Variant,response (% ZapD in pellet) ([1]; 5 µM FtsZ with ZapD at 1:0.2),response (% ZapD in pellet) ([1]; 5 µM FtsZ with ZapD at 1:1),response (% FtsZ in pellet) ([2]; 5 µM FtsZ with ZapD at 1:0.2),response (% FtsZ in pellet) ([2]; 5 µM FtsZ with ZapD at 1:1),"response (% FtsZ in pellet) ([2]; 5 µM FtsZ, no ZapD)"
chain 2 MFEPMELTNDAVIKVIGVGGGGGNAVEHMVRERIEGVEFFAVNTDAQALRKTAVGQTIQIGSGITKGLGAGANPEVGRNAADEDRDALRAALEGADMVFIAAGMGGGTGTGAAPVVAEVAKDLGILTVAVVTKPFNFEGKKRMAFAEQGITELSKHVDSLITIPNDKLLKVLGRGISLLDAFGAANDVLKGAVQGIAELITRPGLMNVDFADVRTVMSEMGYAMMGSGVASGEDRAEEAAEMAISSPLLEDIDLSGARGVLVNITAGFDLRLDEFETVGNTIRAFASDNATVVIGTSLDPDMNDELRVTVVATGIGMDKRPEITLVTNKQVQQPVMDRYQQHGMAPLTQEQKPVAKVVNDNAPQTAKEPDYLDIPAFLRKQAK [chain 2 D383K],71,60,–,–,–
chain 2 MFEPMELTNDAVIKVIGVGGGGGNAVEHMVRERIEGVEFFAVNTDAQALRKTAVGQTIQIGSGITKGLGAGANPEVGRNAADEDRDALRAALEGADMVFIAAGMGGGTGTGAAPVVAEVAKDLGILTVAVVTKPFNFEGKKRMAFAEQGITELSKHVDSLITIPNDKLLKVLGRGISLLDAFGAANDVLKGAVQGIAELITRPGLMNVDFADVRTVMSEMGYAMMGSGVASGEDRAEEAAEMAISSPLLEDIDLSGARGVLVNITAGFDLRLDEFETVGNTIRAFASDNATVVIGTSLDPDMNDELRVTVVATGIGMDKRPEITLVTNKQVQQPVMDRYQQHGMAPLTQEQKPVAKVVNDNAPQTAKEPDYLDIPAFLRDQAD [chain 2 K380D],14,10,–,–,–
chain 2 MFEPMELTNDAVIKVIGVGGGGGNAVEHMVRERIEGVEFFAVNTDAQALRKTAVGQTIQIGSGITKGLGAGANPEVGRNAADEDRDALRAALEGADMVFIAAGMGGGTGTGAAPVVAEVAKDLGILTVAVVTKPFNFEGKKRMAFAEQGITELSKHVDSLITIPNDKLLKVLGRGISLLDAFGAANDVLKGAVQGIAELITRPGLMNVDFADVRTVMSEMGYAMMGSGVASGEDRAEEAAEMAISSPLLEDIDLSGARGVLVNITAGFDLRLDEFETVGNTIRAFASDNATVVIGTSLDPDMNDELRVTVVATGIGMDKRPEITLVTNKQVQQPVMDRYQQHGMAPLTQEQKPVAKVVNDNAPQTAKEPDYLDIPAFLRQQQQ [chain 2 K380Q A382Q D383Q],42,42,–,–,–
chain 2 MFEPMELTNDAVIKVIGVGGGGGNAVEHMVRERIEGVEFFAVNTDAQALRKTAVGQTIQIGSGITKGLGAGANPEVGRNAADEDRDALRAALEGADMVFIAAGMGGGTGTGAAPVVAEVAKDLGILTVAVVTKPFNFEGKKRMAFAEQGITELSKHVDSLITIPNDKLLKVLGRGISLLDAFGAANDVLKGAVQGIAELITRPGLMNVDFADVRTVMSEMGYAMMGSGVASGEDRAEEAAEMAISSPLLEDIDLSGARGVLVNITAGFDLRLDEFETVGNTIRAFASDNATVVIGTSLDPDMNDELRVTVVATGIGMDKRPEITLVTNKQVQQPVMDRYQQHGMAPLTQEQKPVAKVVNDNAPQTAKEPDYLDIPAFLRRQAR [chain 2 K380R D383R],16,35,–,–,–
chain 2 MFEPMELTNDAVIKVIGVGGGGGNAVEHMVRERIEGVEFFAVNTDAQALRKTAVGQTIQIGSGITKGLGAGANPEVGRNAADEDRDALRAALEGADMVFIAAGMGGGTGTGAAPVVAEVAKDLGILTVAVVTKPFNFEGKKRMAFAEQGITELSKHVDSLITIPNDKLLKVLGRGISLLDAFGAANDVLKGAVQGIAELITRPGLMNVDFADVRTVMSEMGYAMMGSGVASGEDRAEEAAEMAISSPLLEDIDLSGARGVLVNITAGFDLRLDEFETVGNTIRAFASDNATVVIGTSLDPDMNDELRVTVVATGIGMDKRPEITLVTNKQVQQPVMDRYQQHGMAPLTQEQKPVAKVVNDNAPQTAKEPDYLDIPAFLRDQAK [chain 2 K380D D383K],–,49,–,–,–
MFEPMELTNDAVIKVIGVGGGGGNAVEHMVRERIEGVEFFAVNTDAQALRKTAVGQTIQIGSGITKGLGAGANPEVGRNAADEDRDALRAALEGADMVFIAAGMGGGTGTGAAPVVAEVAKDLGILTVAVVTKPFNFEGKKRMAFAEQGITELSKHVDSLITIPNDKLLKVLGRGISLLDAFGAANDVLKGAVQGIAELITRPGLMNVDFADVRTVMSEMGYAMMGSGVASGEDRAEEAAEMAISSPLLEDIDLSGARGVLVNITAGFDLRLDEFETVGNTIRAFASDNATVVIGTSLDPDMNDELRVTVVATGIGMDKRPEITLVTNKQVQQPVMDRYQQHGMAPLTQEQKPVAKVVNDNAPQTAKEPDYLDIPAFLRKQAK [chain 1 D383K],–,–,45,66,27
MFEPMELTNDAVIKVIGVGGGGGNAVEHMVRERIEGVEFFAVNTDAQALRKTAVGQTIQIGSGITKGLGAGANPEVGRNAADEDRDALRAALEGADMVFIAAGMGGGTGTGAAPVVAEVAKDLGILTVAVVTKPFNFEGKKRMAFAEQGITELSKHVDSLITIPNDKLLKVLGRGISLLDAFGAANDVLKGAVQGIAELITRPGLMNVDFADVRTVMSEMGYAMMGSGVASGEDRAEEAAEMAISSPLLEDIDLSGARGVLVNITAGFDLRLDEFETVGNTIRAFASDNATVVIGTSLDPDMNDELRVTVVATGIGMDKRPEITLVTNKQVQQPVMDRYQQHGMAPLTQEQKPVAKVVNDNAPQTAKEPDYLDIPAFLRQQQQ [chain 1 K380Q A382Q D383Q],–,–,43,69,24
MFEPMELTNDAVIKVIGVGGGGGNAVEHMVRERIEGVEFFAVNTDAQALRKTAVGQTIQIGSGITKGLGAGANPEVGRNAADEDRDALRAALEGADMVFIAAGMGGGTGTGAAPVVAEVAKDLGILTVAVVTKPFNFEGKKRMAFAEQGITELSKHVDSLITIPNDKLLKVLGRGISLLDAFGAANDVLKGAVQGIAELITRPGLMNVDFADVRTVMSEMGYAMMGSGVASGEDRAEEAAEMAISSPLLEDIDLSGARGVLVNITAGFDLRLDEFETVGNTIRAFASDNATVVIGTSLDPDMNDELRVTVVATGIGMDKRPEITLVTNKQVQQPVMDRYQQHGMAPLTQEQKPVAKVVNDNAPQTAKEPDYLDIPAFLRDQAK [chain 1 K380D D383K],–,–,43,64,23
MFEPMELTNDAVIKVIGVGGGGGNAVEHMVRERIEGVEFFAVNTDAQALRKTAVGQTIQIGSGITKGLGAGANPEVGRNAADEDRDALRAALEGADMVFIAAGMGGGTGTGAAPVVAEVAKDLGILTVAVVTKPFNFEGKKRMAFAEQGITELSKHVDSLITIPNDKLLKVLGRGISLLDAFGAANDVLKGAVQGIAELITRPGLMNVDFADVRTVMSEMGYAMMGSGVASGEDRAEEAAEMAISSPLLEDIDLSGARGVLVNITAGFDLRLDEFETVGNTIRAFASDNATVVIGTSLDPDMNDELRVTVVATGIGMDKRPEITLVTNKQVQQPVMDRYQQHGMAPLTQEQKPVAKVVNDNAPQTAKEPDYLDIPAFLRDQAD [chain 1 K380D],–,–,29,41,27
MFEPMELTNDAVIKVIGVGGGGGNAVEHMVRERIEGVEFFAVNTDAQALRKTAVGQTIQIGSGITKGLGAGANPEVGRNAADEDRDALRAALEGADMVFIAAGMGGGTGTGAAPVVAEVAKDLGILTVAVVTKPFNFEGKKRMAFAEQGITELSKHVDSLITIPNDKLLKVLGRGISLLDAFGAANDVLKGAVQGIAELITRPGLMNVDFADVRTVMSEMGYAMMGSGVASGEDRAEEAAEMAISSPLLEDIDLSGARGVLVNITAGFDLRLDEFETVGNTIRAFASDNATVVIGTSLDPDMNDELRVTVVATGIGMDKRPEITLVTNKQVQQPVMDRYQQHGMAPLTQEQKPVAKVVNDNAPQTAKEPDYLDIPAFLRRQAR [chain 1 K380R D383R],–,–,39,50,23
